Legend:
[1] = biological target: T1, NFAT3 full length (Homo sapiens) (UniProt Q14934); test: cell_activity; details: HepG2 cells; COS cells 50-fold independent of PMA and ionomycin
T1 sequence: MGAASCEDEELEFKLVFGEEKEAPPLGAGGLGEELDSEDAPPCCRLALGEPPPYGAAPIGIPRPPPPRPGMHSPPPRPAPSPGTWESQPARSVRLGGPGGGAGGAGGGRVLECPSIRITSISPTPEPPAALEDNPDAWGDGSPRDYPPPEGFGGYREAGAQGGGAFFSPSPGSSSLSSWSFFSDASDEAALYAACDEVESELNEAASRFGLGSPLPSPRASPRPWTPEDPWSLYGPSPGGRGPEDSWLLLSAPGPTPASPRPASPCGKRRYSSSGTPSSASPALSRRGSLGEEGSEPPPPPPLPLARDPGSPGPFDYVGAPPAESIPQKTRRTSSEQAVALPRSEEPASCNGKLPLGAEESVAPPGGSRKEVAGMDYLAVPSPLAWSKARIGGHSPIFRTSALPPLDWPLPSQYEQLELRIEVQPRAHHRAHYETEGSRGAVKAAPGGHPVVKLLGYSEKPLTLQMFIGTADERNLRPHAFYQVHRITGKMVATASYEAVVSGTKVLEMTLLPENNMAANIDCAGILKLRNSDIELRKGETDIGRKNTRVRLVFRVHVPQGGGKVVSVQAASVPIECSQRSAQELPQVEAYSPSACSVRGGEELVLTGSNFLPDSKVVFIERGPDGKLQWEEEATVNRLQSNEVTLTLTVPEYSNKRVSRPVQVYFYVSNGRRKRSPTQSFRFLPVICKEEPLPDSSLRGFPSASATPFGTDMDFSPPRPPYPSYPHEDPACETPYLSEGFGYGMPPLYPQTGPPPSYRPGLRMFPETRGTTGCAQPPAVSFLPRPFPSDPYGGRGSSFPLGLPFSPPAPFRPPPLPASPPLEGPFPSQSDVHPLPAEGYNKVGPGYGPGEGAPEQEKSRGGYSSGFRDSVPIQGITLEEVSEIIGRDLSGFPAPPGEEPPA

NFAT4 rel domain [2] = biological target: T2, NFAT4 rel domain (Homo sapiens, UniProt Q12968 SEQ:393-708); test: EMSA; binding not detectable; core only printed; details: tags: N-terminal 8 aa heart muscle kinase site (pT7-HMK), E. coli
T2 sequence: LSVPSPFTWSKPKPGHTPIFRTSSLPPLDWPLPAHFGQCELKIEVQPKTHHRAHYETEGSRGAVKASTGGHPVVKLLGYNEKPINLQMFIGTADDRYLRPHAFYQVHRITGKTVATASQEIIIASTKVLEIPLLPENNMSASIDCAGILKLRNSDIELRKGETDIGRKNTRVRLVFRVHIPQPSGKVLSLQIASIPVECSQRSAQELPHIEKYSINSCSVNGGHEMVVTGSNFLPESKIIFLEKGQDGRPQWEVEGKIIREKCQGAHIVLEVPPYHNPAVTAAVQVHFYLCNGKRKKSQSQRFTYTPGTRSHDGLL

[3] = biological target: NFATp rel domain + c-Jun/Fra-1 (Homo sapiens, UniProt Q13469;P05412;P15407 Q13469:392-744,P05412:1-331,P15407:1-271); test: EMSA; highly cooperative; similar affinity for all four NFATs; jun homodimers less effective; exact EMSA probe not stated; details: tags: NFATp HMK site
Sequence of NFATp rel domain + c-Jun/Fra-1 (Q13469 392-744, chain 1 of 3): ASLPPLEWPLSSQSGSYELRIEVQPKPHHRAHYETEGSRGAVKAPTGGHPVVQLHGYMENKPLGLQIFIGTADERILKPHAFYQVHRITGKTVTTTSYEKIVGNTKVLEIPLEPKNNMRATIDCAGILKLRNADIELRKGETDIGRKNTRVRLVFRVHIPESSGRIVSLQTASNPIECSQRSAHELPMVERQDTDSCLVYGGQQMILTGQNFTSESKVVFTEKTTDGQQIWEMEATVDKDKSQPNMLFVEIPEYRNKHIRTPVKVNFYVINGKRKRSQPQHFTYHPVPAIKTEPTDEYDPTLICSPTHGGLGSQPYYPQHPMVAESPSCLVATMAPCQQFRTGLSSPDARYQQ
Sequence of NFATp rel domain + c-Jun/Fra-1 (P05412 whole entry, chain 2 of 3, the tested form may be a part): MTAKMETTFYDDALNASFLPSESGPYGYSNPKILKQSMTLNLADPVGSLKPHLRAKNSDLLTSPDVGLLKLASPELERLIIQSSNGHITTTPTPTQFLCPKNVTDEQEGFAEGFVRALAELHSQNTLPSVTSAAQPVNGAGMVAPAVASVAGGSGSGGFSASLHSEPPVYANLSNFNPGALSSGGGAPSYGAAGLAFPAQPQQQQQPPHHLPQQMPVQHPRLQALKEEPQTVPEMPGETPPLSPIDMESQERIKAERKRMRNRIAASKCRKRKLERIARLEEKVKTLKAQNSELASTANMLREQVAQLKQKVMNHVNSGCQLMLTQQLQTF
Sequence of NFATp rel domain + c-Jun/Fra-1 (P15407 whole entry, chain 3 of 3, the tested form may be a part): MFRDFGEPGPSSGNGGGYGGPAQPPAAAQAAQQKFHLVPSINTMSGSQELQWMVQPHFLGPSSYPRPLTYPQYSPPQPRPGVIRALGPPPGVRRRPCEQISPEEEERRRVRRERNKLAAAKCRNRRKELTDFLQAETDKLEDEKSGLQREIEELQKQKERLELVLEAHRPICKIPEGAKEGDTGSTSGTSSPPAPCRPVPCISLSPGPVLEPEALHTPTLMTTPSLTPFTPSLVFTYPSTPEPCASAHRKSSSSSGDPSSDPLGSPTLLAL

[4] = biological target: NFAT4 rel domain + c-Jun/Fra-1 (Homo sapiens, UniProt Q12968;P05412;P15407 Q12968:393-708,P05412:1-331,P15407:1-271); test: EMSA; highly cooperative; NFAT4 alone does not bind; jun homodimers less effective; exact EMSA probe not stated; details: tags: NFAT4 HMK site
Sequence of NFAT4 rel domain + c-Jun/Fra-1 (P05412 whole entry, chain 2 of 2, the tested form may be a part): as the sequence (P05412 whole entry, chain 2 of 3, the tested form may be a part) above
Sequence of NFAT4 rel domain + c-Jun/Fra-1 (P15407 whole entry, chain 3 of 2, the tested form may be a part): as the sequence (P15407 whole entry, chain 3 of 3, the tested form may be a part) above

[5] = biological target: NFAT3 rel domain + c-Jun/Fra-1 (Homo sapiens, UniProt Q14934;P05412;P15407 Q14934:400-744,P05412:1-331,P15407:1-271); test: EMSA; highly cooperative; jun homodimers less effective; exact EMSA probe not stated; details: tags: NFAT3 HMK site
Sequence of NFAT3 rel domain + c-Jun/Fra-1 (P05412 whole entry, chain 2 of 2, the tested form may be a part): as the sequence (P05412 whole entry, chain 2 of 3, the tested form may be a part) above
Sequence of NFAT3 rel domain + c-Jun/Fra-1 (P15407 whole entry, chain 3 of 2, the tested form may be a part): as the sequence (P15407 whole entry, chain 3 of 3, the tested form may be a part) above

[6] = biological target: NFATc rel domain + c-Jun/Fra-1 (Homo sapiens, UniProt O95644-2;P05412;P15407 O95644-2:408-716,P05412:1-331,P15407:1-271); test: as above; details: tags: NFATc HMK site
Sequence of NFATc rel domain + c-Jun/Fra-1 (P05412 whole entry, chain 2 of 2, the tested form may be a part): as the sequence (P05412 whole entry, chain 2 of 3, the tested form may be a part) above
Sequence of NFATc rel domain + c-Jun/Fra-1 (P15407 whole entry, chain 3 of 2, the tested form may be a part): as the sequence (P15407 whole entry, chain 3 of 3, the tested form may be a part) above

NFAT4 rel domain [7] = biological target: T2, NFAT4 rel domain; test: EMSA; probe length not stated, core SEQ 15; also purified on SEQ 17 resin; details: tags: N-terminal 8 aa heart muscle kinase site (pT7-HMK), E. coli
NFAT3 rel domain = biological target: T3, NFAT3 rel domain (Homo sapiens, UniProt Q14934 SEQ:400-744); test: EMSA; probe length not stated, core SEQ 15; affinity similar to NFATp and NFATc; also purified on SEQ 17 resin; details: tags: N-terminal 8 aa heart muscle kinase site (pT7-HMK), E. coli
T3 sequence: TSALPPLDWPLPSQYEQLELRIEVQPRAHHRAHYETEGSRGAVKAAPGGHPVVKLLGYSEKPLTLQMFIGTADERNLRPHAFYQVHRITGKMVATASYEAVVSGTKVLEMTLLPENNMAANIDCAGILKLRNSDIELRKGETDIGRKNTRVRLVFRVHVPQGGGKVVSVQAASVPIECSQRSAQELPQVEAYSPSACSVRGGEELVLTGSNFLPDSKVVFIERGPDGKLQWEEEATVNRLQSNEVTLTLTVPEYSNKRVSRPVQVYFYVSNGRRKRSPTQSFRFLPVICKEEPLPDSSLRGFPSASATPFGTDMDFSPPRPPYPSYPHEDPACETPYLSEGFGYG

[8] = biological target: T4, NFATc rel domain (NFATc-309) (Homo sapiens, UniProt O95644 SEQ:408-716); test: EMSA; probe length not stated, core SEQ 15; affinity similar to NFATp and NFAT3; also purified on SEQ 17 resin; details: tags: N-terminal 8 aa heart muscle kinase site (pT7-HMK), E. coli
T4 sequence: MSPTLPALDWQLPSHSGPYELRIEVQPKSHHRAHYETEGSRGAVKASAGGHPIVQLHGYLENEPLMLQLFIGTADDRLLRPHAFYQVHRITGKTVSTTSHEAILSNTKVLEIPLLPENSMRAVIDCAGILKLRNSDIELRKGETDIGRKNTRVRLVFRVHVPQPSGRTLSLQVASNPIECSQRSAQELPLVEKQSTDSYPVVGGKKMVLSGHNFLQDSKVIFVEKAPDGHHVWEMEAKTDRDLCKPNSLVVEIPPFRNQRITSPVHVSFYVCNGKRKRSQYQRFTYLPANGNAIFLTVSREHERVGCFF

[9] = biological target: T5, NFATp rel domain (353 aa, homologous to murine NFATp 185-537) (Homo sapiens, UniProt Q13469 SEQ:390-742); test: EMSA; probe length not stated, core SEQ 15; affinity similar to NFATc and NFAT3; 50 mM KCl, RT; also purified on SEQ 17 affinity resin; details: tags: N-terminal 8 aa heart muscle kinase site (pT7-HMK), E. coli
T5 sequence: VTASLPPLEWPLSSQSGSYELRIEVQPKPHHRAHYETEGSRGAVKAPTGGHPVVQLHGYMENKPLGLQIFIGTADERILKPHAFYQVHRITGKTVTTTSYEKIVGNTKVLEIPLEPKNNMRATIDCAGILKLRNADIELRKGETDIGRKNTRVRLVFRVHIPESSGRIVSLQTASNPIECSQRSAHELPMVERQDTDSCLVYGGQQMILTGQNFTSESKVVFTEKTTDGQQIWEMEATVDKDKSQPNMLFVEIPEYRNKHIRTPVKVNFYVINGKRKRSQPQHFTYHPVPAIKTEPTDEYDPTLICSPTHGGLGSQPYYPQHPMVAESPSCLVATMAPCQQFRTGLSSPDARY

## 3x antigen response element (-286 to -257) tk reporter
[1]
  activity (fold activation): 140

B1: IL-2 promoter NFAT site (distal antigen response element) (dsDNA)
DNA 1: GGAAAAACTG
DNA 2: CAGTTTTTCC
NFAT4 rel domain [2]
  binding result: no binding

B2: IL-2 NFAT/AP-1 composite element (dsDNA)
DNA 1: GGAGGAAAAACTGTTTCATACAGAAGGCGT
DNA 2: ACGCCTTCTGTATGAAACAGTTTTTCCTCC
[3]
  binding result: binds
[4]
  binding result: binds
[5]
  binding result: binds
[6]
  binding result: binds

B3: IL-4 promoter NFAT site (dsDNA)
DNA 1: TACATTGGAAAATTTTATTACAC
DNA 2: GTGTAATAAAATTTTCCAATGTA
NFAT4 rel domain [7]
  binding signal: > 10 fold lower affinity than NFATp, NFATc, NFAT3
NFAT3 rel domain
  binding result: binds
[8]
  binding result: binds
[9]
  binding result: binds

— US5612455, “Nuclear factors and binding assay” (Tularik, Inc.)
